Laboratory results reported in patent US20090143319.

Legend:
NF-kB p65 (RelA) = NF-kB p65 (RelA) (UniProt Q04206); assay: competition; settings: unit not given
NF-kB = assay: cell_activity; settings: NF-kB SEAP reporter, 0.1 uM

NF-kB p65 (RelA), sequence (Q04206 whole entry): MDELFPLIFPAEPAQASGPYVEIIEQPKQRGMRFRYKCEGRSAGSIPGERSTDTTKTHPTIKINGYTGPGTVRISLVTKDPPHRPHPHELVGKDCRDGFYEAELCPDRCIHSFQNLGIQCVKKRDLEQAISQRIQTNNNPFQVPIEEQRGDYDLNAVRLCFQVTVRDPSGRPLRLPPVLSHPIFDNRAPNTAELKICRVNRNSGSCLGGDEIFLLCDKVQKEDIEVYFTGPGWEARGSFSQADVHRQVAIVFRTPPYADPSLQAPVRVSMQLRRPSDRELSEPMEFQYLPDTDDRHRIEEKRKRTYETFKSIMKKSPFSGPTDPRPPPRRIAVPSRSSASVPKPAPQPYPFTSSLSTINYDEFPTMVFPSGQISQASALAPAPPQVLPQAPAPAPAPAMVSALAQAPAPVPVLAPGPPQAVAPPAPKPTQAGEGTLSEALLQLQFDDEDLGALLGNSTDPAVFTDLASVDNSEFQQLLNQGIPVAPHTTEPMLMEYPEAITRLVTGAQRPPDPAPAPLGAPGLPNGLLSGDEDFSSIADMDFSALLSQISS

AGTATCGGGGATTTCCCCTTAAC (double strand) [SEQ-E]
IC50 (NF-kB p65 (RelA)): 1.91

TTGAGGGGATTTCCCC (double strand) [SEQ-38]
activity (NF-kB; PS (*): TTG*A*GGGGATTT*C*CCC / antisense 5'-GGGGAAA*T*C*CCCTCAA): 90 % inhibition

ACCAGGGGATTTCCCCGTCCCAC (double strand) [SEQ-G]
IC50 (NF-kB p65 (RelA)): 1.71

CCTTGAGGGGATTTCCCCCC (double strand) [SEQ-9]
activity (NF-kB; PS (*): C*C*TTG*A*GGGGATTT*C*CCCCC / antisense 5'-G*G*GGGGAAA*T*C*CCCTCAAGG): 70 % inhibition

CCTTGAGGGGATTTCCCCCC (double strand) [SEQ-I-PS]
IC50 (NF-kB p65 (RelA); PS at 2 bonds at each end of both strands): 1.06

GAGGGGATTTCCCC (double strand) [SEQ-33]
activity (NF-kB; PS (*): G*A*GGGGATTT*C*CCC / antisense 5'-GGGGAAA*T*C*CCCTC): 70 % inhibition

CCTTGAAGGGATTTCCCTCC (double strand) [SEQ-1]
IC50 (NF-kB p65 (RelA); PS (*): C*C*TTGAAGG*G*A*TTTCCCT*C*C / G*G*AGGGAAA*T*C*CCTTCAA*G*G): 0.84

CCTTGAGGGGATTTCCCCCC (double strand) [SEQ-I]
IC50 (NF-kB p65 (RelA)): 0.384

TTGAGGGGATTTCCCC (double strand) [SEQ-37]
activity (NF-kB; PS (*): T*T*G*A*GGGGATTT*C*CCC / antisense 5'-G*G*GGAAA*T*C*CCCTCAA): 75 % inhibition

AGTTGAGGGGATTTCCCCAGGC (double strand) [SEQ-A]
IC50 (NF-kB p65 (RelA); ELISA competition with immobilized NF-kB site, room temperature): 1.51

CCTTGAAGGGATTTCCCTCC (double strand) [SEQ-x (full PS)]
IC50 (NF-kB p65 (RelA); PS at all positions, both strands, 2.60 in Table 3): 3.97

GAGGGGATTTCCCC (double strand) [SEQ-35]
activity (NF-kB; PS (*): G*A*GGGGATTT*C*CCC / antisense 3'-CTCCC*C*T*AAAG*G*GGG (so in the source)): 70 % inhibition

AGCTGGGGATTTCCCCTTTG (double strand) [SEQ-F]
IC50 (NF-kB p65 (RelA)): 3.4

GAGGGGATTTCCCC (double strand) [SEQ-34]
activity (NF-kB; PS (*): G*A*GGGGATTT*C*CCC / antisense 5'-G*GGGAAA*T*C*CCCTC): 99 % inhibition

AGTTGAGGGGATTTCCCCGC (double strand) [SEQ-H]
IC50 (NF-kB p65 (RelA)): 1.08

TTGAGGGGATTTCCCC (double strand) [SEQ-36]
activity (NF-kB; PS (*): T*TG*A*GGGGATTT*C*CCC / antisense 5'-G*GGGAAA*T*C*CCCTCAA): 80 % inhibition
